Measured values reported in patent publication US20090074795A1, “Methods for addressing ocular diseases through interference with the wnt signaling pathway” (priority 2007, published 2009).

Key:
OIR rats [1] = assay: Retinal NV by fluorescein angiography in OIR rats; assay type: in vivo, rat; details: 3 μl of 1 μg/μl intravitreal at P15, fluorescein angiography at P18, vs BSA
Procedure: To determine the anti-angiogenic effect of DKK1 on retinal NV, DKK1 was injected (3 μl of 1 μg/μl DKK1) into the vitreous of the OIR rats at P15. At the time, NV had partially formed in the OIR rats at P15. The rats were then maintained in normoxia for 3 days, and then the retinal NV was examined using fluorescein angiography on retinal whole mounts at P18.
According to embodiments of experimental data and as shown in FIGS. 19A-19D, the OIR model was generated by exposure of BN rats to 75% oxygen for 5 days (P7-P12). At age of P15, OIR BN rats received a single intravitreal injection of DKK1 into the right eye and the same amount of BSA into the left eye. At P18, retinal vasculature was visualized using fluorescein angiography on the whole-mounted retinas from the left eye injected with BSA (FIGS. 19A and 19B) and the right eyes injected with DKK1 (FIGS. 19C and 19D) by angiography at P18.
Fluorescein Angiography: Angiograms were performed using intracardiac injection of 10 mg/ml fluorescein isothiocyanate-conjugated high molecular weight dextran (Sigma, FD-2000S) in deeply anesthetized mice. Eyes were dissected and fixed with 4% paraformaldehyde in Hanks' balanced saline prepared immediately before use for overnight at 4° C., and retinas were flat-mounted in Fluoromount-G.

STZ-diabetic rats = assay: Retinal ICAM-1 (sICAM-1 ELISA) after intravitreal DKK1 in STZ-diabetic rats; assay type: in vivo, rat; details: different doses intravitreal, STZ-diabetic rats 16 weeks after onset, 2 days after injection, vs BSA
Procedure: To determine the role of wnt pathway in retinal inflammation in diabetic retinopathy, different doses of purified DKK1, a specific inhibitor of the wnt pathway, was injected into the vitreous of the right eye of STZ-diabetic rats. As shown by ELISA, diabetes induced over-expression of ICAM-1 in the retina.
According to embodiments of experimental data shown in FIG. 13, different doses of purified DKK1 were injected intravitrealy into the right eye of STZ-diabetic rats at 16 weeks following the onset of diabetes, and the same amounts of BSA into the left eye for control. Soluble ICAM-1 was measured at 2 days after the injection using the sICAM-1 ELISA kit, normalized by total protein concentrations and expressed as ng.
Intravitreal injection: All solutions will be sterilized by filtration and assessed for endotoxin. Animals will be anesthetized, and compounds will be injected into the vitreous of the one eye through the pars plana using a Hamilton syringe. The left eye will receive the same volume of vehicle and will be used as the control. Following injection, the animals will receive equal amounts of topical antibiotic ointment on both eyes. The animals will then be kept in normoxic conditions until the necessary time point for evaluation

STZ-diabetic BN rats = assay: Retinal vascular permeability in STZ-induced diabetic rats; assay type: in vivo, rat; details: STZ-diabetic BN rats 16 weeks, 3 μg/eye intravitreal, 48 h, vs BSA contralateral eye, P<0.05
Procedure: To investigate if blockade of the wnt pathway reduces the retinal vascular hyper-permeability in diabetes, 3 μg purified DKK1 was intravitreally injected into the right eyes of STZ-diabetic BN rats at 16 weeks following the STZ injection, and the same amount of BSA into the contralateral eyes as control. The vascular permeability was measured at 48 h following the DKK1 injection.
The retinal vascular permeability was measured using Evans blue as a tracer, 48 hr after the injection. Vascular permeability was expressed as % of the permeability in the contralateral control (mean±SD, n=4), P<0.05.
Measurement of vascular permeability: Vascular permeability will be quantified by measuring FITC-BSA leakage from blood vessels into the retina following a method with modifications. The mice anesthetized and FITC-BSA (10 mg/kg body weight) is injected through the femoral vein under microscopic inspection. […] The fluoresce density of fluorescein-albumin from supernatant and serum is measured at excitation wave 485 nm/emission wave 530 nm. Retinal protein levels are measured in the pellet by Bradford assays with quantification at […]. The FITC-BSA levels in the retina are then calculated by the supernatant fluoresce density and normalized to retinal protein levels and normalized to serum FITC levels.

[2] = tested on: bovine retinal capillary endothelial cells (BRCEC); assay: Intracellular ROS generation assay in BRCEC; assay type: cell-based; details: DKK1 6.25-100 nM, 2 h, CM-H2DCFDA
Procedure: A primary culture of bovine retinal capillary endothelial cells (BRCEC) were exposed to 30 mM glucose or TNF-α in the absence or presence of various concentrations of DKK1 (6.25-100 nM) for 2 h. Aminoguanidine was used as a positive control as it is a known inhibitor of ROS generation.
According to embodiments of experimental data shown in FIG. 14, BRCEC were exposed to 30 mM glucose or 1 μg/ml TNF-α in the absence or presence of various concentrations of DKK1 (6.25-100 nM) for 2 h, 10 μM aminoguanidine (AG) was used as positive control. Intracellular ROS generation was measured using CM-H2DCFDA, and expressed as fluorescent unit per well (means±SD, n=3).

OIR rats [3] = assay: Pre-retinal NV and HIF-1α in retinal sections of OIR rats; assay type: in vivo, rat
Procedure: Because pre-retinal NV (vasculature growing into the vitreous space) is a characteristic change of diabetic retinopathy, the effect of DKK1 was evaluated on pre-retinal NV. DKK1 was injected into the right vitreous of the OIR rats and BSA into the left vitreous at P15. At P18, pre-retinal NV was examined in retinal sections. […] Furthermore, the nuclear translocation and expression levels of HIF-1α, a key transcription factor activating VEGF expression, were decreased in the retina of the DKK1-injected eye, compared to the eye treated with BSA.
According to embodiments of experimental data and as shown in FIGS. 20A-20C, Brown Norway (BN) rats were exposed to hyperoxia for 5 days (P7-P12). At age of P15, the rats received a single injection of 3 μg of DKK1 into the vitreous of the right eyes and BSA into the left eyes. The eyes were sectioned at P18. Representative retinal sections from normal control rats (FIG. 20A), eyes of OIR rats injected with BSA (FIG. 20B), and OIR retina injected with DKK1 (FIG. 20C) were triple stained with three antibodies: Retinal vascular EC was stained with an antibody against CD31 (Red); the retinal ischemia stress status was detected by an antibody against GFAP (Blue), and the levels and nuclear translocation of HIF-1α were determined by an antibody against HIF-1α (Green).

B1: DKK1: Purified Dickkopf-1 protein (R&D System), specific inhibitor of the wnt pathway binding LRP5/6; mouse protein in mice, human in HUVEC (protein, UniProt O54908 32-272; O54908 32-272, looked up)
Dickkopf-related protein 1 1: TLNSVLINSNAIKNLPPPLGGAGGQPGSAVSVAPGVLYEGGNKYQTLDNYQPYPCAEDEECGSDEYCSSPSRGAAGVGGVQICLACRKRRKRCMRHAMCCPGNYCKNGICMPSDHSHFPRGEIEESIIENLGNDHNAAAGDGYPRRTTLTSKIYHTKGQEGSVCLRSSDCAAGLCCARHFWSKICKPVLKEGQVCTKHKRKGSHGLEIFQRCYCGEGLACRIQKDHHQASNSSRLHTCQRH
Dickkopf-related protein 1 2: B1 Dickkopf-related protein 1 1
modifications: mouse protein in mice, human in HUVEC
retinal NV areas (OIR rats [1]): decreased retinal NV areas
ICAM-1 over-expression in the retina (STZ-diabetic rats): inhibited the ICAM-1 over-expression in a dose-dependent manner
retinal vascular permeability (STZ-diabetic BN rats): significantly reduced retinal vascular permeability
ROS generation induced by TNF-α ([2]; 1 μg/ml TNF-α): blocked the ROS generation
ROS generation induced by high glucose ([2]; 30 mM glucose): blocked the ROS generation
nuclear translocation and expression levels of HIF-1α in the retina (OIR rats [3]; 3 μg intravitreal at P15, sections at P18, vs BSA): decreased
neovascular endothelial cells (EC) in the vitreous space (pre-retinal NV) (OIR rats [3]; 3 μg intravitreal at P15, sections at P18, vs BSA contralateral eye): significantly fewer
